Kd data for two molecules are collected here from PMC4386031.

The experiment has as its target ubiquitin (monoUb), P0CG48. As to the kind of experiment: NMR titration; NZF domain added to 15N-labeled monoUb or diUb; BEST-TROSY, chemical shift perturbation; NMR PBS (18 mM Na2HPO4, 7 mM NaH2PO4 pH 7.2, 150 mM NaCl), 298 K.

As to RTQHWTCSVCTYENWAKAKRCVVCDHPRPN (domain or fragment, modifications not checked) [TRABID NZF3], the Kd (in general, the free concentration of one partner at which half of the binding sites on the other are occupied at equilibrium, for simple one-to-one binding) was 540 µM.

Regarding NANKWSCHMCTYLNWPRAIRCTQCLSQRRT (domain or fragment, modifications not checked) [TRABID NZF2], the Kd amounted to 1000 µM.
